Source: the supplement of paper PMC9170038

Tested on: MS2 coat protein
Experiment: apparent KD of MS2 coat protein; designed switch direction (-1 OFF switch, 1 ON switch): -1; higher = weaker reporter binding
In short: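 Designed RNA switches sharing common flanks were transcribed on Illumina chips by stalled E. coli RNA polymerase. They were titrated with SNAP-549-labelled MS2 coat protein, from 0.7 or 1.5 nM doubling to 3 µM, in Tris-HCl pH 7.5 buffer with KCl, MgCl2, BSA, DTT, tRNA and Tween-20. Titrations ran without input, with 200 uM small-molecule ligand, or with an oligonucleotide input. The apparent KD of each design is the median over its clusters, after curve-fitting of normalised cluster fluorescence.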

[1] = Eterna round: R95, input ligand: FMN 200 uM
[2] = Eterna round: R95, input ligand: microRNA oligo, concentration not stated
[3] = Eterna round: R95, input ligand: none
[4] = input ligand: microRNA oligo, concentration not stated

Sequence | apparent KD of MS2 coat protein [1] | apparent KD of MS2 coat protein [2] | apparent KD of MS2 coat protein [3] | apparent KD of MS2 coat protein (input ligand: FMN 200 uM) | apparent KD of MS2 coat protein (input ligand: none) | apparent KD of MS2 coat protein [4]
AAGUACCGUCACGAUAGUGAUGGUACAGCAAGCAAGUGAACAUGAGGAUCACCCAUGUCCUCAAUUGCUCGUCUUAU [Sensor 3 - 72] (puzzle: Sensor v3, turn-off variant 2) | 0.025 µM | 0.0555 µM | 0.0241 µM |  |  | 
AAGAAACAUGAGGAUCACCCAUGUGAGGAUAUGAGGAAGAAAAGAAAAGAAAGAAGAAUCAGAAGGCACAAAGG [salish99-ex1_r3_049] (puzzle: Exclusion 1) | 0.0563 µM | 0.0365 µM | 0.0436 µM |  |  | 
UUUUAUAGAGGAUAUGCGUGAAUAUAUAUUCAUGGAAAUUUACAUGAGGAUCACCCAUGUAGAAGGCUGUGUUU [LRO-Excl2-19-mod 090 by JR] (Eterna round: R97, puzzle: Exclusion 2) |  |  |  | 0.0141 µM | 0.0145 µM | 
UUAUUAUAUGUAGGAUAUGCAUAUUAUUAUUAUGCAGAAGGACAUGAGGAUCACCCAUGUAUGUUGUUAUUAUAUAUUAUAUAU [Title] (Eterna round: R96, puzzle: Exclusion NG 1) |  |  |  |  |  | 0.0206 µM
AACCAGCGAGGAUAUGCUUGCGCGUGUUCUGGUUAUAAUCGACUUGAGGAUCACCCAAGUAGAAGGUGCUGGCG [EX2 #55] (Eterna round: R97, puzzle: Exclusion 2) |  |  |  | 0.36 µM | 0.147 µM | 
GCUGGACGAGGAUAUACAAUCGUGCUUCGGCACGUAAGGUCACAUGAGGAUCACCCAUGUAGAAGGUGUCCAGC [E2/2-B2] (Eterna round: R97, puzzle: Exclusion 2) |  |  |  | 0.0548 µM | 0.0183 µM | 
ACAAGCUUGUAAUGAUUUAACAUGAGGAUCACCCAUGUAAAUGGAAGAACCAAUUUGAUAUGAUUUACUCGUCUUAU [JR_STOV1_Sub008] (Eterna round: R97, puzzle: Sensor, turn-off variant 1) |  |  |  | 0.495 µM | 0.589 µM | 
GCGGAGAUCGUAUGAUAAUACAUGAGGAUCACCCAUGUGUAUACGAUGCAUGGUACCCGCCGCUUUGCUUGUCUUGC [Eternabot (L1) Solution 30] (Eterna round: R97, puzzle: Sensor, turn-off variant 1) |  |  |  | 0.0164 µM | 0.0167 µM | 
UGUUGUUACGUAGGAUAUGGCCAACAGGCCCUAGGAUAUGCGAAAGCAGAAGGAGCGCCAACAGGCGAGAAGGACGGGUUAACA [pwkr exNG2 2xF7 2xFMN.15] (Eterna round: R96, puzzle: Exclusion NG 2) |  |  |  | 0.0502 µM | 0.0605 µM | 0.0782 µM
AUAUUAAUAGUAAGGAUAUGCGUGUAUGUAGUUAUGCAGAAGGUACAUGAGGAUCACCCAUGUAUUAAUGUGUG [LRO-BmodExc4-06-Oppy's Opus] (Eterna round: R97, puzzle: Brourd's mod of Exclusion 4) |  |  |  | 0.0216 µM | 0.0173 µM | 
UCACGGGAUUGAGGAUAUAUAUAAAUUUAUACAAUAGAAGGCAAAUUUUUAGUUUUUUCACUUUACAUGAGGAUCACCCAUGUU [JR_ExcBG1_Sub083] (Eterna round: R96, puzzle: Exclusion NG 1) |  |  |  |  |  | 0.0201 µM
GGAUAAAGUCGAGGAUAUACGCACCACUAACGAGUAGAAGGCGAACAUGAGGAUCACCCAUGUGAGUUCUCAAUAAGAAACACG [Prohibition 69 - Jieux - Exclusion NG 1] (Eterna round: R96, puzzle: Exclusion NG 1) |  |  |  | 0.0541 µM | 0.0371 µM | 0.0261 µM
AACCAGCGAGGAUAUGCUUGAGCUUGUUCUGGUCAGAAUCGACUUGAGGAUCACCCAAGUAGAAGGUGCUGACG [EX2 #60] (Eterna round: R97, puzzle: Exclusion 2) |  |  |  | 0.0187 µM | 0.0169 µM | 
AAGCAACAUGAGGAUCACCCAUGUUAGGAUAUACGCAUGCAUGCAUGCAUGCAUGCAAGUAGAAGGAACCAUGC [Design #15] (Eterna round: R97, puzzle: Exclusion 1) |  |  |  | 0.032 µM | 0.049 µM | 
UUCCCACAUGAGGAUCACCCAUGUGAGGAUAUGGGCGGCGCCGCAAAAGCGGCGCCGCCCAGAAGGCGCAUGAU [Malcxlusion 8 - Jieux - Exclusion 1] (Eterna round: R97, puzzle: Exclusion 1) |  |  |  | 0.0216 µM | 0.0184 µM | 
UGUACUAUGCGAGCUGACUUGCGUAGUGCAGCAGGUGUUACAUGAGGAUCACCCAUGUCCUCAUUUGCUCGUCUUAU [SL-sv3-2.04 JL mod] (puzzle: Sensor v3, turn-off variant 2) | 0.289 µM | 0.231 µM | 0.2 µM |  |  | 
CUAAUUCGAGGAUAUGCAAUGGAGUCUUUAAUAUAGUUCUCACAUGAGGAUCACCCAUGUAGAAGGCGAGCGGG [Eternabot (L1) Solution 50] (Eterna round: R97, puzzle: Exclusion 2) |  |  |  | 0.115 µM | 0.0531 µM | 
CACCUGAAUACAGGAUAUCCUACAUGAGGAUCACCCAUGUAAUAAAUGAGAAUUUCGAAUGUAAUGGAGAAGGGUAGAUAAGGC [Ostracism 88 - Jieux - Exclusion NG 2] (Eterna round: R96, puzzle: Exclusion NG 2) |  |  |  | 0.125 µM | 0.0866 µM | 0.0828 µM
UUAAUGUCAGGAUAUGCUUAAUAUAUUAUAUUAUAAUAUAUACAUGAGGAUCACCCAUGUAGAAGGGACAUUAU [LRO-Excl2-03-Fireball XL5] (Eterna round: R97, puzzle: Exclusion 2) |  |  |  | 0.0268 µM | 0.0382 µM | 
GGUAAGCUAGGAUAUGCUUUGGGAAAGCAUUCCUUCGAUAAACUUGAGGAUCACCCAAGUAGAAGGAGCUUACU [salish99_ex2_r4_014] (Eterna round: R97, puzzle: Exclusion 2) |  |  |  | 0.0192 µM | 0.0144 µM | 
CAGUACUACAAGCUAUGGGACAUGAGGAUCACCCAUGUUCGUCUUAUUGAUCUAGGUACGCUGACGUACCUAGAUCU [JL-sv1-2.19 Brourd mod] (puzzle: Sensor v3, turn-off variant 1) | 0.0169 µM | 0.0278 µM | 0.0159 µM |  |  | 
UUUUUGUGAGGAUAUGGAAUAUCUUCUAUUUAUUAUUAAUUCCAGAAGGCACAUGAGGAUCACCCAUGUAUUUU [Ex4 - 3 - 35] (puzzle: Exclusion 4) |  | 0.0207 µM |  |  |  | 
ACUUCACAUGAGGAUCACCCAUGUGAGGAUAUCGUCGAGGAUGUAAUGCCAUCCGUGACGAGAAGGCGCAUGGU [Exclusion 1 (Mod 2.1 solution 40 by Eternabot)] (Eterna round: R97, puzzle: Exclusion 1) |  |  |  | 0.147 µM | 0.0311 µM | 
AAUAACAGAGGAUAUACUGUUUUAUGUGUUUGUUAUUUUGAACAUGAGGAUCACCCAUGUAGAAGGCUGAAUAA [JMF 23] (Eterna round: R96, puzzle: Exclusion 2) |  |  |  | 0.0239 µM | 0.0253 µM | 0.0188 µM
CAGUACUGAGGAUAUACAUGAGGAUCACCCAUGUGUUCCAGCUAGGAAACUAGCUAAAGUAGAAGGCAGUACUG [salish99_ex3_r3_092x] (puzzle: Exclusion 3) | 0.459 µM | 0.0241 µM | 0.025 µM |  |  | 
AACCUAGUCAUAGGAUAUACAGGCAAAGCCAAAGUAGAAGGAUGACACAUGAGGAUCACCCAUGUGGUCCUUGAACAAAAUAAC [Esatier] (Eterna round: R96, puzzle: Exclusion NG 1) |  |  |  |  |  | 0.0241 µM
GGCAGGCUUGAGGAUAUGCAUAGGCUAGGCCUAGCAGAAGGCAAGACAUGAGGAUCACCCAUGUGUUCCUUGUG [jl-ex6-4.35 ViennaUCT mod] (Eterna round: R97, puzzle: Exclusion 6) |  |  |  | 0.545 µM | 0.322 µM | 
AGUACUAACACGAAAGUGUUAGUACUAUAAGCUUGUGAUACAUGAGGAUCACCCAUGUCCUCAUAAGCUCGUCUUAU [Mat - Sensor v3 - Turn-off var 2 - D101] (Eterna round: R96, puzzle: Sensor v3, turn-off variant 2) |  |  |  | 0.0211 µM | 0.0217 µM | 0.477 µM
UACACUGCAUGAGGAUCAAACAUGAGGAUCACCCAUGUGUAGCAAGCUUUUUGCUCGUCUUAUAAAUAUGUAGUGUA [Electric Eye 10 - Jieux - Sensor, turn-off variant 1] (Eterna round: R97, puzzle: Sensor, turn-off variant 1) |  |  |  | 0.0134 µM | 0.0129 µM | 
GCAGGAUAAGUCAGGAUAUACCUAUGGAUACAUAGGUAGAAGGGACAUGAGGAUCACCCAUGUGACUCGCCUGC [Fiskers BMX 4 - 73] (puzzle: Brourd's mod of Exclusion 4) |  | 0.0276 µM |  |  |  | 
